# Data from patent US9067981 (Janssen / Centocor, dated 2015).
# B1: Fab fragment of 3D6 (Fab, V domains shown)
# VL: not shown
# V domain: EVKLVESGGGLVKPGASLKLSCAASGFTFSNYGMSWVRQNSDKRLEWVASIRSGGGRTYYSDNVKGRFTISRENAKNTLYLQMSSLKSEDTALYYCVRYDHYSGSSDYWGQGTTITVSS
# notes: also called 3D6 Fab
# B2: 12A11 murine IgG1 kappa monoclonal antibody (antibody, V domains shown)
# VH: QVTLKESGPGILKPSQTLSLTCSFSGFSLSTSGMSVGWIRQPSGKGLEWLAHIWWDDDKYYNPSLKSRLTISKDTSRNQVFLKITSVDTADTATYYCARRTTTADYFAYWGQGTTLTVSS
# VL: DVLMTQTPLSLPVSLGDQASISCRSSQSIVHSNGNTYLEWYLQKPGQSPKLLIYKVSNRFSGVPDRFSGSGSGTDFTLKISRVEAEDLGIYYCFQSSHVPLTFGAGTKLELK
# B3: Fab fragment of 12B4 (Fab, V domains shown)
# VH: QVTLKESGPGILQPSQTLSLTCSFSGFSLSTNGMGVSWIRQPSGKGLEWLAHIYWDEDKRYNPSLKSRLTISKDTSNNQVFLKITNVDTADTATYYCARRRIIYDVEDYFDYWGQGTTLTVSS
# VL: DVLMTQTPLSLPVSLGDQASISCRSSQNIVHSNGNTYLEWYLQKPGQSPKLLIYKVSNRFSGVPDRFSGSGSGTDFTLKISRVEAEDLGVYYCFQGSHVPLTFGAGTKLELK
# notes: Fab of the murine IgG2a kappa antibody as crystallized; also called 12B4 Fab
# B4: 12B4 murine IgG2a kappa monoclonal antibody (antibody, V domains shown)
# VH: QVTLKESGPGILQPSQTLSLTCSFSGFSLSTNGMGVSWIRQPSGKGLEWLAHIYWDEDKRYNPSLKSRLTISKDTSNNQVFLKITNVDTADTATYYCARRRIIYDVEDYFDYWGQGTTLTVSS
# VL: DVLMTQTPLSLPVSLGDQASISCRSSQNIVHSNGNTYLEWYLQKPGQSPKLLIYKVSNRFSGVPDRFSGSGSGTDFTLKISRVEAEDLGVYYCFQGSHVPLTFGAGTKLELK
# B5: Fab fragment of 12A11 (Fab, V domains shown)
# VH: QVTLKESGPGILKPSQTLSLTCSFSGFSLSTSGMSVGWIRQPSGKGLEWLAHIWWDDDKYYNPSLKSRLTISKDTSRNQVFLKITSVDTADTATYYCARRTTTADYFAYWGQGTTLTVSS
# VL: DVLMTQTPLSLPVSLGDQASISCRSSQSIVHSNGNTYLEWYLQKPGQSPKLLIYKVSNRFSGVPDRFSGSGSGTDFTLKISRVEAEDLGIYYCFQSSHVPLTFGAGTKLELK
# notes: also called 12A11 Fab
# Experiments:
# [1] = biological target: T1, Aβ1-7 peptide (amino acids 1-7 of SEQ ID NO:1); test: X-ray crystal structure of the Fab:peptide complex
# T1 construct: also called Aβ 2-7 (the part visible in the superimposed models)
# T1 peptide: DAEFRHD
# [2] = biological target: T2, Aβ1-10 peptide (immobilized); test: BIACORE (SPR), immobilized Aβ1-10, bivalent interaction assumed
# T2 construct: also called Ab1-10
# T2 peptide: DAEFRHDSGY
# [3] = biological target: T3, Aβ1-40 peptide (amino acids 1-40 of SEQ ID NO:1); test: comparison of unit cell parameters of the Aβ1-7 and Aβ1-40 crystals
# T3 construct: also called Aβ40
Binder,binding result [1],Kd [2],binding result [3]
B1,binds,–,–
B2,–,8.4 nM,–
B3,binds,–,–
B4,–,24.5 nM,–
B5,binds,–,binds
